For the data set, the system named is O=[N+]([O-])c1ccc(O[C@@H]2OC[C@@H](O)[C@H](O)[C@H]2O)cc1. Nature of the data set: purified protein. The note with it: McIlvaine buffer 50 mM pH 5.5, 40 °C, 0.1–25 mM substrate, 13.6 μM enzyme, 15 min.

This note sets out measurements from PMC7242879, “Exploring the Molecular Basis for Substrate Affinity and Structural Stability in Bacterial GH39 β-Xylosidases” (Frontiers in Bioengineering and Biotechnology, 2020).

For orientation: Km means the substrate concentration at which the rate is half of its maximum. For orientation: kcat means the number of substrate molecules converted per active site and unit of time at saturation. What is called kcat/Km is the turnover number divided by the Michaelis constant.

Turning to “XacXynB (Xanthomonas citri subsp. citri 306)”, the Michaelis-Menten constant (Km) came to 1930 ± 250 µM, the kcat came out at 4.43 ± 0.142 s⁻¹ and the specificity constant (kcat/Km) came out at 2300 M⁻¹ s⁻¹.
